We go through one protein from patent publication US20120064075.

This data set addresses type IV collagen.

B1: murine chimera FIXGla-Egf1FVIIa (protein)
chain: MKHLNTVMAESPALITIFLLGYLLSTECAVFLDRENATKILTRPKRYNSGKLEEFVRGNLERECIEERCSFEEAREVFENTEKTTEFWKQYVDGDQCESNPCLNGGICKDDISSYECWCQVGFEGRNCEFSKNEQLICANENGDCDQYCRDHVGTKRTCSCHEDYTLQPDEVSCKPKVEYPCGRIPVVEKRNSSSRQGRRKRRKRIVGGNVCPKGECPWQAVLKINGLLLCGAVLLDARWIVTAAHCFDNIRYWGNITVVMGEHDFSEKDGDEQVRRVTQVIMPDKYIRGKINHDIALLRLHRPVTFTDYVVPLCLPEKSFSENTLARIRFSRVSGWGQLLDRGATALELMSIEVPRLMTQDCLEHAKHSSNTPKITENMFCAGYMDGTKDACKGDSGGPHATHYHGTWYLTGVVSWGEGCAAIGHIGVYTRVSQYIDWLVRHMDSKLQVGVFRLPLL
Consider B1, for which the “ELISA measurements of expressed chimera in blood 10 minutes after a bolus of FIX” value is listed as “a 4-fold increase in the chimeric protein was measured”.
